# US20230406885A1, “CYCLIC PEPTIDES FOR TRAPPING INTERLEUKIN-1 BETA” (MERCK SHARP & DOHME LLC, priority 2022, published 2023)
# *1 amine or outer side, *2 acyl side, *3 side chain or, on linkers, in order; H or OH if unused. [ ]: non-standard residue; d: D form. 3AzaPhe4AcPip = (S)-3-(6-(4-acetylpiperazin-1-yl)pyridin-3-yl)-2-aminopropanoic acid, CC(=O)N1CCN(c2ccc(C[C@H](N[*:1])C(=O)[*:2])cn2)CC1; Pro(trans-4-NH2) = O=C([C@@H]1C[C@@H](N[*:3])CN1[*:1])[*:2]; Trp(βS-Me,4-F) = C[C@@H](c1c[nH]c2cccc(F)c12)[C@H](N)C(=O)O; Bip(4'-COOH) = N[C@@H](Cc1ccc(-c2ccc(C(=O)O)cc2)cc1)C(=O)O; Phe(4-COOH) = N[C@@H](Cc1ccc(C(=O)O)cc1)C(=O)O; hTyr = N[C@@H](CCc1ccc(O)cc1)C(=O)O; h4Pal = N[C@@H](CCc1ccncc1)C(=O)O; 4Pal = N[C@@H](Cc1ccncc1)C(=O)O; dNMeA = CN[C@H](C)C(=O)O
# Molecular target: Recombinant human IL-1β (BioLegend 579404) (human, UniProt P01584 117-269)
# Test: cell-based or functional assay
row,MRC5 IC50,Binder
1,0.0362 nM,"cyclo([Bip(4'-COOH)]W[Phe(4-COOH)]G[Pro(trans-4-NH2)][Trp(βS-Me,4-F)]D[dNMeA]G[Bip(4'-COOH)][4Pal]L[dA][hTyr]) (SMILES CC(C)C[C@@H]1NC(=O)[C@H](Cc2ccncc2)NC(=O)[C@H](Cc2ccc(-c3ccc(C(=O)O)cc3)cc2)NC(=O)CNC(=O)[C@@H](C)N(C)C(=O)[C@H](CC(=O)O)NC(=O)[C@H]([C@@H](C)c2c[nH]c3cccc(F)c23)NC(=O)[C@@H]2C[C@@H](N)CN2C(=O)CNC(=O)[C@H](Cc2ccc(C(=O)O)cc2)NC(=O)[C@H](Cc2c[nH]c3ccccc23)NC(=O)[C@H](Cc2ccc(-c3ccc(C(=O)O)cc3)cc2)NC(=O)[C@H](CCc2ccc(O)cc2)NC(=O)[C@@H](C)NC1=O) [SEQ ID NO: 59]"
2,0.0666 nM,"cyclo([3AzaPhe4AcPip]W[Phe(4-COOH)]G[Pro(trans-4-NH2)][Trp(βS-Me,4-F)]D[dNMeA]G[Bip(4'-COOH)]KL[dA][hTyr]) (SMILES CC(=O)N1CCN(c2ccc(C[C@@H]3NC(=O)[C@H](CCc4ccc(O)cc4)NC(=O)[C@@H](C)NC(=O)[C@H](CC(C)C)NC(=O)[C@H](CCCCN)NC(=O)[C@H](Cc4ccc(-c5ccc(C(=O)O)cc5)cc4)NC(=O)CNC(=O)[C@@H](C)N(C)C(=O)[C@H](CC(=O)O)NC(=O)[C@H]([C@@H](C)c4c[nH]c5cccc(F)c45)NC(=O)[C@@H]4C[C@@H](N)CN4C(=O)CNC(=O)[C@H](Cc4ccc(C(=O)O)cc4)NC(=O)[C@H](Cc4c[nH]c5ccccc45)NC3=O)cn2)CC1) [SEQ ID NO: 6]"
3,0.0689 nM,"cyclo([Bip(4'-COOH)]W[Phe(4-COOH)]G[Pro(trans-4-NH2)][Trp(βS-Me,4-F)]D[dNMeA]G[Bip(4'-COOH)]FL[dA][hTyr]) (SMILES CC(C)C[C@@H]1NC(=O)[C@H](Cc2ccccc2)NC(=O)[C@H](Cc2ccc(-c3ccc(C(=O)O)cc3)cc2)NC(=O)CNC(=O)[C@@H](C)N(C)C(=O)[C@H](CC(=O)O)NC(=O)[C@H]([C@@H](C)c2c[nH]c3cccc(F)c23)NC(=O)[C@@H]2C[C@@H](N)CN2C(=O)CNC(=O)[C@H](Cc2ccc(C(=O)O)cc2)NC(=O)[C@H](Cc2c[nH]c3ccccc23)NC(=O)[C@H](Cc2ccc(-c3ccc(C(=O)O)cc3)cc2)NC(=O)[C@H](CCc2ccc(O)cc2)NC(=O)[C@@H](C)NC1=O) [SEQ ID NO: 60]"
4,0.312 nM,"cyclo([Bip(4'-COOH)]W[Phe(4-COOH)]G[Pro(trans-4-NH2)][Trp(βS-Me,4-F)]D[dNMeA]G[Bip(4'-COOH)][h4Pal]L[dA][hTyr]) (SMILES CC(C)C[C@@H]1NC(=O)[C@H](CCc2ccncc2)NC(=O)[C@H](Cc2ccc(-c3ccc(C(=O)O)cc3)cc2)NC(=O)CNC(=O)[C@@H](C)N(C)C(=O)[C@H](CC(=O)O)NC(=O)[C@H]([C@@H](C)c2c[nH]c3cccc(F)c23)NC(=O)[C@@H]2C[C@@H](N)CN2C(=O)CNC(=O)[C@H](Cc2ccc(C(=O)O)cc2)NC(=O)[C@H](Cc2c[nH]c3ccccc23)NC(=O)[C@H](Cc2ccc(-c3ccc(C(=O)O)cc3)cc2)NC(=O)[C@H](CCc2ccc(O)cc2)NC(=O)[C@@H](C)NC1=O) [SEQ ID NO: 61]"
5,0.247 nM,"cyclo([Bip(4'-COOH)]W[Phe(4-COOH)]G[Pro(trans-4-NH2)][Trp(βS-Me,4-F)]A[dNMeA]G[Bip(4'-COOH)]KL[dA][hTyr]) (SMILES CC(C)C[C@@H]1NC(=O)[C@H](CCCCN)NC(=O)[C@H](Cc2ccc(-c3ccc(C(=O)O)cc3)cc2)NC(=O)CNC(=O)[C@@H](C)N(C)C(=O)[C@H](C)NC(=O)[C@H]([C@@H](C)c2c[nH]c3cccc(F)c23)NC(=O)[C@@H]2C[C@@H](N)CN2C(=O)CNC(=O)[C@H](Cc2ccc(C(=O)O)cc2)NC(=O)[C@H](Cc2c[nH]c3ccccc23)NC(=O)[C@H](Cc2ccc(-c3ccc(C(=O)O)cc3)cc2)NC(=O)[C@H](CCc2ccc(O)cc2)NC(=O)[C@@H](C)NC1=O) [SEQ ID NO: 58]"
